Laboratory results: article doi:10.1101/2021.11.05.467472 (bioRxiv, 2021)
Residue numbers refer to the chain shown, from its start. Names may count otherwise.

T1: CbbS (Rubisco small subunit) (H. neapolitanus, UniProt P45686 1-110)
T1 sequence: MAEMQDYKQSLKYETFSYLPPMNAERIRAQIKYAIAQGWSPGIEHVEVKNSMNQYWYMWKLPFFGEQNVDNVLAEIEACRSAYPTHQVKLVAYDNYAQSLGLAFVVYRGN

B1: CbbL (Rubisco large subunit) (natural protein)
chain: MAVKKYSAGVKEYRQTYWMPEYTPLDSDILACFKITPQPGVDREEAAAAVAAESSTGTWTTVWTDLLTDMDYYKGRAYRIEDVPGDDAAFYAFIAYPIDLFEEGSVVNVFTSLVGNVFGFKAVRGLRLEDVRFPLAYVKTCGGPPHGIQVERDKMNKYGRPLLGCTIKPKLGLSAKNYGRAVYECLRGGLDFTKDDENINSQPFMRWRDRFLFVQDATETAEAQTGERKGHYLNVTAPTPEEMYKRAEFAKEIGAPIIMHDYITGGFTANTGLAKWCQDNGVLLHIHRAMHAVIDRNPNHGIHFRVLTKILRLSGGDHLHTGTVVGKLEGDRASTLGWIDLLRESFIPEDRSRGIFFDQDWGSMPGVFAVASGGIHVWHMPALVNIFGDDSVLQFGGGTLGHPWGNAAGAAANRVALEACVEARNQGRDIEKEGKEILTAAAQHSPELKIAMETWKEIKFEFDTVDKLDTQNR
B2: NTD_(1-53)-sfGFP R23A (domain or fragment)
chain: MNTRNTRSKQRAPFGVSSSVKPALDLIEQAPNPAYDRHPACITLPERTCRHPL
B3: Rubisco CbbL D99A (complex)
chain 1: B1 chain with D99A
chain 2: T1 sequence
B4: NTD_(1-53)-sfGFP-His (domain or fragment)
chain: B2 chain with A23R
B5: Rubisco CbbL Y72A (complex)
chain 1: B1 chain with Y72A
chain 2: T1 sequence
B6: CsoSCA-MBP (enzyme)
chain: MNTRNTRSKQRAPFGVSSSVKPRLDLIEQAPNPAYDRHPACITLPERTCRHPLTDLEANEQLGRCEDSVKNRFDRVIPFLQVVAGIPLGLDYVTRVQELAQSSLGHTLPEELLKDNWISGHNLKGIFGYATAKALTAATEQFSRKIMSEKDDSASAIGFFLDCGFHAVDISPCADGRLKGLLPYILRLPLTAFTYRKAYAGSMFDIEDDLAQWEKNELRRYREGVPNTADQPTRYLKIAVYHFSTSDPTHSGCAAHGSNDRAALEAALTQLMKFREAVENAHCCGASIDILLIGVDTDTDAIRVHIPDSKGFLNPYRYVDNTVTYAQTLHLAPDEARVIIHEAILNANRSDGWAKGNGVASEGMRRFIGQLLINNLSQIDYVVNRHGGRYPPNDIGHAERYISVGDGFDEVQIRNLAYYAHLDTVEENAIDVDVGIKIFTKLNLSRGLPIPIAIHYRYDPNVPGSRERTVVKARRIYNAIKERFSSLDEQNLLQFRLSVQAQDIGSPIEEVASA

Experiments:
cryo-EM structure = molecular target: the molecule itself; assay: cryo-EM structure
[1] = molecular target: T2, Rubisco-strep (H. neapolitanus CbbL8S8) (H. neapolitanus, UniProt O85040 1-473; P45686 1-110); assay: cryo-EM structure
[2] = molecular target: T1, CbbS (Rubisco small subunit); assay: cryo-EM structure
[3] = molecular target: T2, Rubisco-strep (H. neapolitanus CbbL8S8); assay: BLI
NTD_(1-53)-sfGFP-His = molecular target: B4; assay: BLI
[4] = molecular target: T2, Rubisco-strep (H. neapolitanus CbbL8S8); assay: SEC
biotinylated Rubisco = biotinylated Rubisco (H. neapolitanus, UniProt O85040 1-473; P45686 1-110, biotin (subunit and site not stated)); assay: BLI

B1
binding result (cryo-EM structure): binds

MNTRNTRSKQRAPFGVSSSVKPRLDLIEQAPNPAYDRHPACITLPERTCR [NTD_(1-50) peptide (CsoSCA residue 1-50)]
stoichiometry N [1]: 8 | binding result [2]: binds

B2
binding result [3]: binds

B3
fold increase in KD against wild type (NTD_(1-53)-sfGFP-His): 10 fold

B4
binding result [4]: binds

B5
fold increase in KD against wild type (NTD_(1-53)-sfGFP-His): 10 fold

B6
Kd (biotinylated Rubisco): 1.2 ± 0.1 nM
